# Measurements published in patent publication US20230181770A1, “COMPOSITIONS AND METHODS OF TARGETING AND IMAGING AGED MICROGLIA WITH Aß PEPTIDE AMINO ACID RESIDUES FOR V-DOMAIN BINDING OF RAGE” (Neurosn, Inc., priority 2018, published 2023).
# Target: T1, RAGE receptors (Mus musculus, UniProt Q62151)
# T1 construct: from tissue; host or cells: mouse brain (APPSWE Model 2789 and C57BL/6 mice), after tail vein injection
# Experiment: Brain autoradiography (AR) binding localization after tail vein injection in AD and normal mice
# Assay type: in vivo
# Conditions: 50 μCi per tail vein at day 0, sacrificed day 3
# Description: Four APPSWE Model 2789 mice (AD) and 4 C57BL/6 mice (normal) receive an injection of 50 μCi of Sn-IBD-Aβ(16-23) per tail vein at day 0.
# Additionally, four APPSWE Model 2789 mice (AD) and 4 C57BL/6 mice (normal) receive an injection of 50 μCi of Sn-IBD-K-Aβ(23-17) per tail vein at day 0.
# All the animals are sacrificed on day 3 post Sn-Aβ-AA injection and brains preserved and autoradiography (AR) binding localization in AD-specific areas mapped.
# Findings—Histopathological comparison and autoradiography dosimetry are measured in each mouse brain in comparative anatomic regions.
# T1 sequence (Q62151 23-402): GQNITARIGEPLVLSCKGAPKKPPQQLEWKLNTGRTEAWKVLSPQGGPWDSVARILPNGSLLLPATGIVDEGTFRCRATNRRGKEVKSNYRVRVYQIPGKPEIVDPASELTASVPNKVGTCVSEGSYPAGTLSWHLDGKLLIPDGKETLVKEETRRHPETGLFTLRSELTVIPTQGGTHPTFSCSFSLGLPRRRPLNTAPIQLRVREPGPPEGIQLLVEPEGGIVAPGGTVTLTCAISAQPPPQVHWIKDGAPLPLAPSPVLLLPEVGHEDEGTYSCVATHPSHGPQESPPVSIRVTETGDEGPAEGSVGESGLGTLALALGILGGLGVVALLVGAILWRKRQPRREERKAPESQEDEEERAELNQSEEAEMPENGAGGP
substance,measurement,setting,value
"Sn-IBD-Aβ(16-23) (KLVFFAED; Amyloid-beta protein 42 Sn-IBD conjugate; UniProt P05067 687-694, looked up, fragment)",AR distribution of RAGE binding in brain,RAGE expressing APPSWE Model 2789 mice (AD),increase in RAGE binding
same,AR distribution of RAGE binding in cortical and hippocampal areas,normal C57BL/6 mice,minimal
